The Human Domainome abundance scans (Beltran et al. 2025)

B1: Steroid hormone receptor ERR2, residues 100 to 176; numbered along this chain, O95718 (parent)
chain: KRLCLVCGDIASGYHYGVASCEACKAFFKRTIQGNIEYSCPATNECEITKRRRKSCQACRFMKCLKVGMLKEGVRLD

Variants of: B1
Experiment: abundance fitness (aPCA) (normalised: wild type 0, dead -1); higher = more abundant; growth selection in yeast, the domain comes from the species named
Conditions: Homo sapiens

Abundance fitness of substitutions, site by site:
N35: P 0.012; K 0.027; V -0.133; L -0.298; D 0.111; G 0.271; I -0.593; R -0.047; T -0.017; S -0.129; E 0.157; C -0.12; F -0.275; W -0.298; Y -0.178; M -0.317; Q 0.05; A 0.069; H 0.031
S39: F 0.374; C 0.189; K 0.305; G 0.19; W 0.22; L 0.283; D 0.441; Y 0.283; E 0.303; A 0.319; N 0.397; H 0.103; V 0.294; T 0.254; P 0.089; M 0.39; I 0.19
E37: W -0.543; G -0.122; K -0.532; M -0.654; C -0.158; D -0.423; P -0.507; N -0.575; R -0.371; I -0.341; T -0.796; F -0.851; Y -0.745; H -0.19; Q -0.41; L -0.657
P41: D 0.213; F -0.214; E 0.057; V 0.093; A 0.056; M -0.161; R -0.158; T -0.147; Q -0.045; I -0.071; H -0.028; G 0.128; Y 0.018; N 0.123; L -0.134; K -0.037; C -0.045; S -0.137; W -0.253
N44: H -0.314; F 0.068; D 0.119; C -0.473; E 0.022; G 0.117
A42: C -0.501; W -0.043; V -0.153; F -0.209; G -0.025; E 0.027; Q -0.191; R -0.024; S -0.098; I 0.027; H -0.445; M -0.033; L -0.064; D 0.045; K -0.087
T43: S -0.237; H -0.459; Y -0.252; I -0.065; W -0.021; C -0.651; Q -0.175; N -0.085; M 0.03; P -0.393; F -0.558; V -0.012; L -0.234; K 0.212; R 0.043; A 0.081; D -0.152; E 0.042
C40: M -0.742; G -0.711; R -0.734; V -0.688; A -0.91; W -0.94; K -0.781; Q -0.604; Y -0.247; D -0.982; P -0.684; F -0.876; E -0.726; S -0.632; N -0.586; I -0.443
I36: D -0.062; L -0.162; W -0.231; V 0.003; Q -0.16; P -0.182; T -0.288; C -0.037; F -0.095; N -0.185; H -0.167; R -0.26; K -0.129; A -0.032; M -0.074; G -0.273; Y -0.235
G34: V -0.186; T -0.088; Q 0.254; Y 0.075; W -0.08; R -0.033
Y38: M -0.548; C -0.293; K -0.725; H -0.196; V -0.541; W 0.097; R -0.347; F -0.037; G -0.394; P -0.547; S -0.518; Q -0.841; T -0.636; E -0.586; L -0.398; D -0.979; A -0.554; I -0.421
